Assay results as given in patent publication US20170281764A1 (JN BIOSCIENCES, published 2017).

How the values were obtained:
[1] = biological target: T1, extracellular region of human TIGIT fused to the Fc region of human immunoglobulin gamma-1 chain (hTIGIT-Fc) (human); assay: ELISA, plate coated with 5 µg/ml hTIGIT-Fc
T1 construct: also called human TIGIT-Fc fusion protein; wild-type TIGIT-Fc
Method: Binding of HuTIG1-IgG1.AA to human TIGIT was examined by ELISA. An ELISA plate was coated with 5 μg/ml hTIGIT-Fc in PBS (100 μl/well) at 4° C. overnight, washed with Wash Buffer (PBS containing 0.05% Tween 20), and blocked with 200 μl/well of SuperBlock Blocking Buffer (Thermo Fisher Scientific). After washing wells with Wash Buffer, HuTIG1-IgG1.AA, starting at 2.5 μg/ml and serial 2-fold dilutions in SuperBlock Blocking Buffer, was added for binding to plate-bound human TIGIT. After incubating the ELISA plate for 1 hr at room temperature and washing with Wash Buffer, bound antibodies were detected with 100 μl/well of HRP-conjugated goat anti-human kappa chain polyclonal antibody (Southern Biotech), 1/2,000-diluted in ELISA Buffer. After incubating for 30 min at room temperature and washing with Wash Buffer, color development was initiated with 100 μl/well of ABTS substrate and stopped with 100 μl/well of 2% oxalic acid. Absorbance was read at 405 nm. […] The half maximal effective concentration (EC₅₀) of HuTIG1-IgG1.AA for binding to TIGIT was 65 ng/ml.

[2] = biological target: T2, HA-tagged human TIGIT with mutation D51A, on CHO-K1 cells (human, UniProt Q495A1 22-244); assay: flow cytometry on CHO-K1 cells transiently expressing HA-tagged TIGIT mutant
T2 construct: Built as for m17
T2 sequence: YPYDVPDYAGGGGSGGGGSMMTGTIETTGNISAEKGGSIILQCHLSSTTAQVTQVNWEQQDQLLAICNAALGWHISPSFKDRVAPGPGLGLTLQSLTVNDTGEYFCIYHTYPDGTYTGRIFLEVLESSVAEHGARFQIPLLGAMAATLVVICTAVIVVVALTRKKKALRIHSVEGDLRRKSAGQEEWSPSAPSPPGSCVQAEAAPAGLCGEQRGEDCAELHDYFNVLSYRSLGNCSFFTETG
Method: (§1) For flow cytometry analysis of the anti-hTIGIT antibody binding epitope, HA-tagged human TIGIT proteins with or without single amino acid mutation were transiently transfected into CHO-K1 cells. After 24 hr, transfected cells were suspended in HBSS buffer (Thermo Fisher Scientific, Cat#14175095), and incubated with HuTIG1-IgG1.AA antibody at varying concentrations in 50 μL volume. After 1 hr incubation at 4° C., cells were washed and a second incubation with 50 μL Alexa488 conjugated anti-human IgG(H+L) secondary antibody (Thermo Fisher Scientific, Cat#A-11013) was performed to detect cells bound by antibody. Cells were incubated with an anti-HA antibody (Sigma, Cat# H7411) as a positive control, and non-transfected CHO-K1 cells were used as a negative control. The cells were analyzed on an Attune NxT Cytometer (Thermo Fisher Scientific) and the data were processed using FlowJo software. For each mutant, the saturating antibody binding MFI (mean fluorescence intensity) were normalized to 100% POC (percent of control), and no primary antibody binding control MFI were normalized to 0% POC. Data were then fit to a four parameter non-linear sigmoidal curve using GraphPad Prism 7 curve fitting using following formula: Y=Bottom+(Top−Bottom)/(1+10^{((Log EC}^₅₀^{-X)*HillSlope)}).
(§2) All of these residues co-locate to one discrete region on the front ([…] structure of the TIGIT IgV extracellular domain (FIG. 28).

[3] = biological target: T3, extracellular region of human TIGIT fused to FLAG and GPI (hTIGIT-GPI), on the surface of NS0 cells (human); assay: flow cytometry, competition with hCD155-Fc-FITC (125 ng/ml) for NS0-hTIGIT cells
T3 construct: The GPI signal is processed when the anchor is attached; also called NS0-hTIGIT cells
T3 chain: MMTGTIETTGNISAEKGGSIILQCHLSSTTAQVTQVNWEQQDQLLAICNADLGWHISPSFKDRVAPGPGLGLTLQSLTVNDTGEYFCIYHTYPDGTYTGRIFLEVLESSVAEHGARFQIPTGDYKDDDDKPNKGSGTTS
Method: The activity of HuTIG1-IgG1.AA to block the interaction between human TIGIT and human CD155 was analyzed by flow cytometry using NS0-hTIGIT cells. […] After washing with FACS Buffer, NS0-hTIGIT cells were subjected to flow cytometry using a FACScan flow cytometer (BD Biosciences, San Jose, Calif.). To examine the binding of hCD155-Fc-FITC on the cells, MCF was obtained at each antibody concentration. […] The half maximal inhibitory concentration (IC₅₀) of HuTIG1-IgG1.AA to block the TIGIT-CD155 interaction was 67 ng/ml.

[4] = biological target: T4, HA-tagged human TIGIT with mutation Q35A, on CHO-K1 cells (human, UniProt Q495A1 22-244); assay: flow cytometry on CHO-K1 cells transiently expressing HA-tagged TIGIT mutant; Q35A mutant
T4 construct: Built as for m17
T4 sequence: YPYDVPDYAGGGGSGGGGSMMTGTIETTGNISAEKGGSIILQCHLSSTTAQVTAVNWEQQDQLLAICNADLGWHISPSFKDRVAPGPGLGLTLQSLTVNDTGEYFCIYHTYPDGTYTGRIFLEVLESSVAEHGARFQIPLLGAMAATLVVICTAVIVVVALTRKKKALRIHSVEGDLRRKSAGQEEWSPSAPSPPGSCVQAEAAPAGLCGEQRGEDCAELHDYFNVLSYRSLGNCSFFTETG
Method: as §1, with “EC}^₅₀^{-X)*HillSlope)}). […]” for “EC}^₅₀^{-X)*HillSlope)}).”

L44A = biological target: T5, L44A; assay: flow cytometry titration on CHO-K1 cells transiently expressing the HA-tagged TIGIT mutant, Alexa488 anti-human IgG detection, four-parameter fit of percent of control, nM is from the concentration axis and paragraph 252
T5 construct: also called HA-tagged human TIGIT with mutation L44A, on CHO-K1 cells
T5 single chain: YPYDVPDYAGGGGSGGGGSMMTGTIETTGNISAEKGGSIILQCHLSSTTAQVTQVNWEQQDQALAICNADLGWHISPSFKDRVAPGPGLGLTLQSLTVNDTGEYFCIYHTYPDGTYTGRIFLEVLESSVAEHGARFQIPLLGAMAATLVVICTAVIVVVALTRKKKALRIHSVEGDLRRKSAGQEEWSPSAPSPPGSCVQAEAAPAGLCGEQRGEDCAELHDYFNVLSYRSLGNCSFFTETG
Method: as §1, §2

B1: HuTIG1-IgG1.AA (humanized IgG1/kappa form of TIG1, L234A/L235A) (antibody)
heavy: not shown
light: DIQMTQSPSSLSASVGDRVTITCRASKSISKYLAWYQQKPGKAPKLLIYSGSTLQSGVPSRFSGSGSGTDFTLTISSLQPEDFATYYCQQHNEYPWTFGGGTKVEIKRTVAAPSVFIFPPSDEQLKSGTASVVCLLNNFYPREAKVQWKVDNALQSGNSQESVTEQDSKDSTYSLSSTLTLSKADYEKHKVYACEVTHQGLSSPVTKSFNRGEC
notes: Mature full chains; also called humanized TIG1
[1]
  EC50: 0.065 µg/mL
[2]
  fold decrease in binding affinity against wild type human TIGIT: > 10 fold
[3]
  IC50: 0.067 µg/mL
[4]
  EC50: 176 nM
L44A
  EC50: 1.23 nM
